Article PMC10876603

Target: microtubules (polymerised α/β-tubulin) (UniProt Q6B856)
UniProt Q6B856, sequence (Q6B856 whole entry, looked up): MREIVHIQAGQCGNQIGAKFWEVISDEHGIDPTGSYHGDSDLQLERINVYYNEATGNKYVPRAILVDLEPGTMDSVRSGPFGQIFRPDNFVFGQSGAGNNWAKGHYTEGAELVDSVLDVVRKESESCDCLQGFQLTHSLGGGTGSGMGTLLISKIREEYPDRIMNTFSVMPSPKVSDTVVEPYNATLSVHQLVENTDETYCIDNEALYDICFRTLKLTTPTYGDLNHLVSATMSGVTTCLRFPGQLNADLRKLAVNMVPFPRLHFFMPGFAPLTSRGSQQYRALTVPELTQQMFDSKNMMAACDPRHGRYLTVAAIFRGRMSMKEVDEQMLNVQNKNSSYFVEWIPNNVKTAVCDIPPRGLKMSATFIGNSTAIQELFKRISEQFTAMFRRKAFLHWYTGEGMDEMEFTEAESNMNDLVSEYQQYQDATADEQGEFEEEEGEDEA

Substance “human CEN subcomplex with Borealin R17E, R19E, K20E (CEN-Borealin^MTBM) (from UniProt Q9NQS7 1-58; O15392 1-142; Q53HL2 1-280)” has a width of bundles of GMpCpp-stabilized rhodamine-labeled MTs (100 nM) after 2 min with 4 μM CEN, TIRF microscopy (single GMpCpp MTs measure 0.34 μm) of 0.36 μm.
